The values that follow come from article PMC3597794.

The target of the assay is HsiB1C1 complex (P. aeruginosa PAO1). Put plainly: negative stain electron microscopy.

Values joined by “and” are separate entries in the source; they are usually repeats but may differ in a detail not shown here. Equal entries are not always repeated.

For the substance HsiB1C1 complex, the stoichiometry N is 12 and 13.

As a reminder, the stoichiometry N is the number of molecules, sites or subunits per partner or assembly.
